The target in this test is Tomato sucrose synthase SuSy3-haplotype#1 (cv Moneymaker) (S. lycopersicum cv Moneymaker). The test is described as follows: native gel or EMSA; Native PAGE on Mini-PROTEAN TGX gel 4-20% of the IMAC-purified product; size estimated against a prestained protein ladder.

Turning to “Tomato sucrose synthase SuSy3-haplotype#1 (cv Moneymaker) (enzyme)”, the stoichiometry N (in general, a count of units in the complex or per binding partner) was 4.

(Values after PMC6205638, “Exploring natural genetic variation in tomato sucrose synthases on the basis of increased kinetic properties” (PLoS ONE, 2018).)
